In test [1] the target is T1, human IGFBP-1 (human, UniProt P08833 26-259).
T1 construct: Secreted recombinant protein
T1 sequence (looked up): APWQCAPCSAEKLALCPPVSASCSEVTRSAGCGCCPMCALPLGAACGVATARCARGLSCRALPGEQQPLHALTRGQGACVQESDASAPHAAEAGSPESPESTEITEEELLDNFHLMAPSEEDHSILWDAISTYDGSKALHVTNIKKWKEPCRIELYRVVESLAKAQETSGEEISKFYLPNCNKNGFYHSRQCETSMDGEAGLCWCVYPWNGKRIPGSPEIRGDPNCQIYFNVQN
Nature of the test: competitive phage ELISA. As for the experimental part:
(§1) Phage particles were harvested and resuspended in PBS buffer as described in Lowman, H. B., "Phage Display of Peptide Libraries on Protein Scaffolds," in Cabilly, S. (ed.), *Combinatorial Peptide Library Protocols* (Humana Press Inc.: Totowa, N.J., 1998), pp. 249–264. Then phage concentrations were normalized to yield a maximal ELISA signal of 0.2–0.4 for each mutant (Lowman, in Cabilly, S. (ed.), supra). Threefold serial dilutions of soluble competitor were prepared on non-absorbent microtiter plates (Nunc, F, 96 wells) with binding buffer (0.5% TWEEN™ 20/PBS) containing phage at the previously-determined concentrations. The dilution range of competitor protein extended over six orders of magnitude, starting at 5 μM for IGFBP-1 and 500 nM for IGFBP-3. After blocking, the plates containing immobilized target were washed with 0.05% TWEEN™ PBS buffer and subsequently incubated with 80 μl/well of the premixed phage-competitor solutions for 1 hour at room temperature. […] Numbers in Table I represent mean ±standard deviation of individually assessed $IC50$ values.
(§2) At least two different clones of every mutant were tested.
For orientation: An ELISA detects its analyte on a solid surface through an enzyme-linked reagent.

Test [2] deals with T2, recombinant human IGFBP-3 (human, UniProt P17936 28-291).
T2 construct: Secreted recombinant protein
The test can be described thus: competitive phage ELISA, soluble IGFBP-3. The method, then: as §1, §2

Test [3] addresses T1, human IGFBP-1. The test can be described thus: competitive phage ELISA, soluble IGFBP-1. The method, then:
as §1, §2

Experimental findings from US6506874 are described below.

T2 sequence (P17936 28-291 limits assumed): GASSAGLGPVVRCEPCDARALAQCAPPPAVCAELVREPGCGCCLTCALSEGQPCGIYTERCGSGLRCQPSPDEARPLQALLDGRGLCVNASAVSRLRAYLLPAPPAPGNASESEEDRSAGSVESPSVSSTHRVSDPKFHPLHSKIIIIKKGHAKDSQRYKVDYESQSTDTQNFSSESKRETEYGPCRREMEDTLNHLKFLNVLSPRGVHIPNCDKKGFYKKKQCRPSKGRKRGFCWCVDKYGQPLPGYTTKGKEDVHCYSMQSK

B1: IGF-I D12A (on G1S-A70V) displayed on phage (ligand)
chain: SPETLCGAELVAALQFVCGDRGFYFNKPTGYGSSSRRAPQTGIVDECCFRSCDLRRLEMYCAPLKPAKSV
notes: not shown: Display partner: M13 gene III protein fragment (residues 249-406) and the junction to it
Consider B1, for which the “fold increase in binding” value with human IGFBP-1 [1] is approximately 2 fold.

B2: IGF-I Y31A (on G1S-A70V) displayed on phage (ligand, not shown: large carriers)
chain: SPETLCGAELVDALQFVCGDRGFYFNKPTGAGSSSRRAPQTGIVDECCFRSCDLRRLEMYCAPLKPAKSV
By IC50 is commonly meant the concentration needed to halve the response being measured. As for B2, the IC50 amounted to 0.73 nM in test [2] and 6.8 nM with human IGFBP-1 [3].

B3: IGF-I P2A (on G1S-A70V) displayed on phage (ligand)
chain: SAETLCGAELVDALQFVCGDRGFYFNKPTGYGSSSRRAPQTGIVDECCFRSCDLRRLEMYCAPLKPAKSV
notes: not shown: M13 gene III fragment (residues 249-406) used as phage-display carrier, and its junction to IGF-I
Regarding B3, the values for the 50% inhibitory concentration (IC50) (in test [2]; with human IGFBP-1 [3]) were 0.81 nM and 11 nM, respectively.

B4: IGF-I S33A (on G1S-A70V) displayed on phage (ligand, not shown: large carriers)
chain: SPETLCGAELVDALQFVCGDRGFYFNKPTGYGASSRRAPQTGIVDECCFRSCDLRRLEMYCAPLKPAKSV
For B4, the results for the concentration for half-maximal inhibition (IC50) (in test [2]; with human IGFBP-1 [3]) were 1.01 nM and 9.1 nM, respectively.

B5: IGF-I S34A (on G1S-A70V) displayed on phage (ligand, not shown: large carriers)
chain: SPETLCGAELVDALQFVCGDRGFYFNKPTGYGSASRRAPQTGIVDECCFRSCDLRRLEMYCAPLKPAKSV
For the molecule B5, the IC50 in test [2] is 1.65 nM; with human IGFBP-1 [3], 9.5 nM.

B6: IGF-I G7A (on G1S-A70V) displayed on phage (ligand, not shown: large carriers)
chain: SPETLCAAELVDALQFVCGDRGFYFNKPTGYGSSSRRAPQTGIVDECCFRSCDLRRLEMYCAPLKPAKSV
modifications: disulfide (positions not given here); not fully specified; also: displayed on M13 phage as gene III fusion
As for B6, the IC50 in test [2] is 4.58 nM.

B7: IGF-I D45A (on G1S-A70V) displayed on phage (ligand)
chain: SPETLCGAELVDALQFVCGDRGFYFNKPTGYGSSSRRAPQTGIVAECCFRSCDLRRLEMYCAPLKPAKSV
notes: as for B3
For the molecule B7, the “fold increase in binding” value in the test with human IGFBP-1 [1] was approximately 2 fold.

B8: IGF-I G32A (on G1S-A70V) displayed on phage (ligand, not shown: large carriers)
chain: SPETLCGAELVDALQFVCGDRGFYFNKPTGYASSSRRAPQTGIVDECCFRSCDLRRLEMYCAPLKPAKSV
For B8, the half-maximal inhibitory concentration (IC50) stood at 0.76 nM in test [2] and 10.9 nM in the test with human IGFBP-1 [3].

B9: IGF-I G30A (on G1S-A70V) displayed on phage (ligand, not shown: large carriers)
chain: SPETLCGAELVDALQFVCGDRGFYFNKPTAYGSSSRRAPQTGIVDECCFRSCDLRRLEMYCAPLKPAKSV
For the molecule B9, the 50% inhibitory concentration (IC50) in test [2] was 0.58 nM; with human IGFBP-1 [3] it was 7.1 nM.

B10: IGF-I E9A (on G1S-A70V) displayed on phage (ligand, not shown: large carriers)
chain: SPETLCGAALVDALQFVCGDRGFYFNKPTGYGSSSRRAPQTGIVDECCFRSCDLRRLEMYCAPLKPAKSV
modifications: disulfide (positions not given here); not fully specified; also: displayed on M13 phage as gene III fusion
Consider B10, for which the half-inhibitory concentration (IC50) came out at 1.32 nM in test [2] and 8.6 nM with human IGFBP-1 [3].

B11: IGF-I T29A (on G1S-A70V) displayed on phage (ligand, not shown: large carriers)
chain: SPETLCGAELVDALQFVCGDRGFYFNKPAGYGSSSRRAPQTGIVDECCFRSCDLRRLEMYCAPLKPAKSV
For the molecule B11, the half-maximal inhibitory concentration (IC50) in test [2] was 1.23 nM; in the test with human IGFBP-1 [3], 7.3 nM.

B12: IGF-I P28A (on G1S-A70V) displayed on phage (ligand, not shown: large carriers; small tags and cut ends)
chain: SPETLCGAELVDALQFVCGDRGFYFNKATGYGSSSRRAPQTGIVDECCFRSCDLRRLEMYCAPLKPAKSV
B12: the IC50 was found to be 1.41 nM in test [2] and 9.3 nM in the test with human IGFBP-1 [3].
